Laboratory results reported in patent publication US10098967B2, “Self-assembly of therapeutic agent-peptide nanostructures” (Ohio State Innovation Foundation, priority 2012, dated 2018).
Where a name gives a salt, the structure may show the parent alone. Peptide text beside a SMILES is read from it. * marks the point of attachment. Succinyl(20-O-(20S)-CPT) = CC[C@@]1(OC(=O)CCC(=O)*)C(=O)OCc2c1cc1n(c2=O)Cc2cc3ccccc3nc2-1; Fmoc = O=C(OCC1c2ccccc2-c2ccccc21)*

Key:
[1] = Solubility in PBS and water; assay type: physicochemical; conditions: for solubility in water: pure water (H2O)
Method: Three CPT-tetrapeptide (KFKK (SEQ ID NO:6)) conjugates were prepared that have alternating hydrophobic and hydrophilic sequence similar to the dipeptide derivatives with one additional lysine bearing a charged free amine. Compound E, F, and G were soluble in both H2O and PBS but as hydrophobicity decreased by changing the N-termini from -Fmoc to —NH2, solubility in both solutions increased.

HT-29 cells [2] = assay: In vitro cell assay, HT-29 viability by MTS colorimetric assay; assay type: cell-based, human; conditions: HT-29, 4 days growth after exposure, conjugates prepared at 10 mM in PBS, aged 3 days
Method: The conjugates discussed in Examples 1 and 2 were tested for efficacy against killing human colorectal cancer cells in an in vitro cell assay. HT-29 cells were plated into 96-well tissue culture plates, at a density of 5,000 cells/well, and allowed to grow overnight. The conjugates were previously prepared at 10 mM in sterile PBS and allowed to age 3 days, while all other Camptothecin drugs were prepared fresh for each experiment/replicate. Irinotecan HCl was dissolved in pH-neutral, sterile-filtered water, and S-Camptothecin and 10-hydroxycamptothecin were dissolved in DMSO due to solubility issues. Further dilutions of all drugs, both Camptothecin-peptides and free Camptothecin derivatives, were performed in cell culture medium. The cells were then exposed to serial dilutions containing the drugs or cell culture medium alone for the control. A peptide derivative was prepared without Camptothecin to serve as a control to test for toxicity of the peptides themselves, and was also tested in this assay. The cells were then allowed to grow for a further 4 days before being assessed for viability using an MTS colorimetric assay.

[3] = tested on: mesothelioma tumor xenografts; assay: Mesothelioma (MSTO) tumor xenograft model in mice; assay type: in vivo; conditions: for Deaths from Tumor Burden: MSTO model, mice, weekly
Method: (§1) NH2—KK(CPT)-NH2 (D) was evaluated for efficacy in treating Lewis Lung Carcinoma (LLC) and mesothelioma tumor xenografts in mice. Animals were first injected with tumor cells either into the flank (LLC model; FIG. 12) or peritoneum (mesothelioma model; Table 2)), and allowed to develop small tumors. The animals were subsequently administered weekly either intravenous or intraperitoneal drugs or saline (negative control), and monitored for tumor burden and body weight over several weeks. […] But these initial studies were extremely limited in scope, only testing one of 15-20 structures that have been created. This lower efficacy is most likely due to reduced mobility of the 1D nanotubes within tissue, a property that can be beneficially exploited to increase the retention of drug within tumors by allowing the assembly process to respond structurally in the environment of the tumor cells.

HT-29 cells [4] = assay: Flow cytometry of cellular uptake as a function of time; assay type: cell-based, human; conditions: as a function of incubation time
Method: To quantify the cellular uptake as a function of time, flow cytometry was conducted by monitoring the CPT dipetides at a wavelength of 420-470 nm after 335 nm excitation. […] An analogous flow cytometry study was performed with A549 cells, and similar results and trends were observed.

[5] = Hydrolytic (lactone) stability in PBS by HPLC; assay type: physicochemical; conditions: for lactone form present after 7 days: stored at 10 mM
Method: The hydrolytic stability of C and D was measured by HPLC in PBS at 37° C. over a week as a function of concentration. […] The stability of the lactone depended strongly on the concentration (FIG. 11(A)). For example, the amount of lactone remaining after 7 days decreased from 91 to 30% for C upon changing the concentration from 10 to 0.2 mM). This progression is consistent with the non-covalent nature of the nanotube structures, which depend on concentration. However, even at 0.2 mM in PBS, 80% of the lactone remained after 24 h, in contrast to CPT, of which 17% of its structure was in the lactone form after 24 h under these conditions.

[6] = Lactone stability in human serum (HS) by HPLC
Method: FIG. 11 (A) is a graph showing lactone stability of CPT-dipeptides Ac-KK(CPT)-NH2 (C), and NH2—KK(CPT)-NH2 (D) in human serum (HS) at 37° C. (pH 7.4) at 1 and 10 mM, as monitored by HPLC. […] Samples were prepared at 10 mM in PBS and subsequently diluted to 1 mM in HS after 24 h.

[7] = tested on: Lewis Lung Carcinoma (LLC); assay: Lewis Lung Carcinoma (LLC) flank tumor model in mice; assay type: in vivo; conditions: tumor cells into the flank, weekly intravenous or intraperitoneal
Method: as §1

CC[C@@]1(OC(=O)CCC(=O)NCCCC[C@H](NC(=O)[C@H](CCCCN)NC(=O)[C@H](Cc2ccccc2)NC(=O)[C@H](CCCCN)NC(C)=O)C(N)=O)C(=O)OCc2c1cc1n(c2=O)Cc2cc3ccccc3nc2-1 [Compound F, Ac-KFKK(CPT)-NH2] (Ac-KFKK(Succinyl(20-O-(20S)-CPT))-NH2)
solubility in PBS [1]: soluble
precipitation in PBS at 10 mM [1]: remained highly soluble
solubility in water [1]: soluble

CC[C@@]1(OC(=O)CCC(=O)NCCCC[C@H](NC(=O)[C@H](CCCCN)NC(=O)[C@H](Cc2ccccc2)NC(=O)[C@H](CCCCN)NC(=O)OCC2c3ccccc3-c3ccccc32)C(N)=O)C(=O)OCc2c1cc1n(c2=O)Cc2cc3ccccc3nc2-1 [Compound E, Fmoc-KFKK(CPT)-NH2] (Fmoc-KFKK(Succinyl(20-O-(20S)-CPT))-NH2; N-terminus and C-terminus assumed)
solubility in PBS [1]: soluble
solubility in water [1]: soluble

CCc1c2c(nc3ccc(OC(=O)N4CCC(N5CCCCC5)CC4)cc13)-c1cc3c(c(=O)n1C2)COC(=O)[C@]3(O)CC [Irinotecan HCl, reference compound]
potency in killing human colorectal cancer cells (viability) (HT-29 cells [2]): the least potent
Deaths from Tumor Burden ([3]; 100 mg/kg): 0/5
cellular uptake (fluorescence, 420-470 nm after 335 nm excitation) (HT-29 cells [4]): highest fluorescence

CC[C@@]1(O)C(=O)OCc2c1cc1n(c2=O)Cc2cc3ccccc3nc2-1 [CPT, Camptothecin, reference compound]
time to hydrolysis to the inactive carboxylate form [5]: within hours
lactone remaining after 24 h ([5]; 37° C., 0.2 mM): 17%
Deaths from Tumor Burden ([3]; 5 mg/kg): 0/5

CC[C@@]1(OC(=O)CCC(=O)NCCCC[C@H](NC(=O)[C@H](CCCCN)NC(C)=O)C(N)=O)C(=O)OCc2c1cc1n(c2=O)Cc2cc3ccccc3nc2-1 [C, Ac-KK(CPT)-NH2]
lactone remaining after 24 h ([5]; 37° C., 0.2 mM): 80%
lactone remaining after 7 days ([5]; 37° C., 0.2 mM): 30%
lactone form present after 7 days ([5]; 37° C.): 91%
lactone stability after dilution to 1 mM [6]: significantly greater stability than D

CC[C@@]1(OC(=O)CCC(=O)NCCCC[C@H](NC(=O)[C@H](CCCCNC(C)=O)NC(=O)OCC2c3ccccc3-c3ccccc32)C(N)=O)C(=O)OCc2c1cc1n(c2=O)Cc2cc3ccccc3nc2-1 [A, Fmoc-K(Ac)K(CPT)-NH2]
solubility in water [1]: poor solubility

CC[C@@]1(OC(=O)CCC(=O)NCCCC[C@H](NC(=O)[C@H](CCCCN)NC(=O)[C@H](Cc2ccccc2)NC(=O)[C@@H](N)CCCCN)C(N)=O)C(=O)OCc2c1cc1n(c2=O)Cc2cc3ccccc3nc2-1 [G, NH2—KFKK(CPT)-NH2] (H-KFKK(Succinyl(20-O-(20S)-CPT))-NH2)
solubility in PBS [1]: soluble
precipitation in PBS at 10 mM [1]: remained highly soluble
solubility in water [1]: soluble

CC[C@@]1(OC(=O)CCC(=O)NCCCC[C@H](NC(=O)[C@H](CCCCN)NC(=O)OCC2c3ccccc3-c3ccccc32)C(N)=O)C(=O)OCc2c1cc1n(c2=O)Cc2cc3ccccc3nc2-1 [Compound B, Fmoc-KK(CPT)-NH2]
solubility in PBS [1]: poor solubility

CC[C@@]1(OC(=O)CCC(=O)NCCCC[C@H](NC(=O)[C@@H](N)CCCCN)C(N)=O)C(=O)OCc2c1cc1n(c2=O)Cc2cc3ccccc3nc2-1 [D, NH2—KK(CPT)-NH2]
lactone form present after 7 days ([5]; 37° C.): 71%
Deaths from Tumor Burden ([3]; 5 mg/kg): 2/5
Deaths from Tumor Burden ([3]; 15 mg/kg): 2/5
in vivo efficacy (tumor burden) ([3]; mesothelioma model, tumor cells into the peritoneum, weekly intravenous or intraperitoneal): lower in vivo efficacy
in vivo efficacy (tumor burden) [7]: lower in vivo efficacy
solubility in PBS [1]: limited solubility
cellular uptake (fluorescence, 420-470 nm after 335 nm excitation) (HT-29 cells [4]): slightly higher than that of C
